# Test system: Bacillus subtilis
# Assay: cleaved RNA product abundance (RNA/gDNA barcode ratio) relative to median wild-type variant (ratio to wild type); higher = more accumulation of the downstream cleavage product
# Details: cleavage site: cggR-gapA (positions -7 to +36 mutated)
# How it was run: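 Cleaved product abundance was measured with barcoded reporter mRNAs (truncated aprE or tetM) carrying mutagenized RNase Y cleavage-site windows in the B. subtilis chromosome. Cultures in LB at 37°C grew from OD600 0.0003 to 0.3. Gel-selected cleaved RNA was reverse transcribed and barcode-sequenced with genomic DNA barcodes, and the RNA:gDNA barcode ratio per construct was scaled to the median construct bearing the unmutated site.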
# [1] = experiment (reporter, strain, medium): exp 4a: truncated aprE reporter, strain BJT201 with 2% xylose (RNase J1 expressed)
# [2] = experiment (reporter, strain, medium): exp 2b: truncated aprE reporter, strain BJT200
# [3] = experiment (reporter, strain, medium): exp 6: tetM reporter, strain 168
Sequence,cleaved RNA product abundance [1],cleaved RNA product abundance [2],cleaved RNA product abundance [3]
ACAGACGAAGGAGCCGCAAAGAAGTTATTAAGGCATGAATAATCCCTCAATACAAATATCTCTCACTTATTTAAA,0.058,,
ACAGACGAAGGAGCCGCAAAGAAGTTATTAAGGCATGAATAATCCCTCAATAGAAATATCTCTCACTTATTTAAA,0.0906,,
ACAGACGAAGGAGCCGCAAAGAAGTTATTAAGGCATGAATAATCCCTCAATATAAAAATCTCTCACTTATTTAAA,0.0882,,
ACAGACGAAGGAGCCGCAAAGAAGTTATTAAGGCATGAATAATCCCTCAATATAAATAACTCTCACTTATTTAAA,0.111,0.0904,
ACAGACGAAGGAGCCGCAAAGAAGTTATTAAGGCATGAATAATCCCTCAATATAAATAGCTCTCACTTATTTAAA,0.0902,0.0721,
ACAGACGAAGGAGCCGCAAAGAAGTTATTAAGGCATGAATAATCCCTCAATATAAATATCTCTCACTATTTAAAG,0.146,,
ACAGACGAAGGAGCCGCAAAGAAGTTATTAAGGCATGAATAATCCCTCAATATAAATATCTCTCACTTATTTAAA,0.125,0.0901,0.124
ACAGACGAAGGAGCCGCAAAGAAGTTATTAAGGCATGAATAATCCCTCAATATAAATTTCTCTCACTTATTTAAA,0.0847,0.0999,
ACAGACGAAGGAGCCGCAAAGAAGTTATTAAGGCATGAATAATCCCTCAATATAATTATCTCTCACTTATTTAAA,0.095,0.0921,
ACAGACGAAGGAGCCGCAAAGAAGTTATTAAGGCATGAATAATCCCTCAATATACATATCTCTCACTTATTTAAA,0.129,0.112,
ACAGACGAAGGAGCCGCAAAGAAGTTATTAAGGCATGAATAATCCCTCAATATATATATCTCTCACTTATTTAAA,0.11,0.106,
ACAGACGAAGGAGCCGCAAAGAAGTTATTAAGGCATGAATAATCCCTCAATATGAATATCTCTCACTTATTTAAA,0.0354,,
ACAGACGAAGGAGCCGCAAAGAAGTTATTAAGGCATGAATAATCCCTCAATATTAATATCTCTCACTTATTTAAA,0.0489,,
ACAGACGAAGGAGCCGCAAAGAAGTTATTAAGGCATGAATAATCCCTCAATGTAAATATCTCTCACTTATTTAAA,0.0571,,
ACAGACGAAGGAGCCGCAAAGAAGTTATTAAGGCATGAATAATCCCTCAATTTAAATATCTCTCACTTATTTAAA,0.0584,0.059,
ACAGACGAAGGAGCCGCAAAGAAGTTATTAAGGCATGAATAATCCCTCACTATAAATATCTCTCACTTATTTAAA,0.136,0.083,
ACAGACGAAGGAGCCGCAAAGAAGTTATTAAGGCATGAATAATCCCTCAGTATAAATATCTCTCACTTATTTAAA,0.0715,,
ACAGACGAAGGAGCCGCAAAGAAGTTATTAAGGCATGAATAATCCCTCATTATAAATATCTCTCACTTATTTAAA,0.0852,0.0915,
ACAGACGAAGGAGCCGCAAAGAAGTTATTAAGGCATGAATAATCCCTCCATATAAATATCTCTCACTTATTTAAA,,0.0936,

Sequence,cleaved RNA product abundance [1],cleaved RNA product abundance [2],cleaved RNA product abundance [3]
ACAGACGAAGGAGCCGCAAAGAAGTTATTAAGGCATGAATAATCCCTCGATATAAATATCTCTCACTTATTTAAA,0.0814,,
ACAGACGAAGGAGCCGCAAAGAAGTTATTAAGGCATGAATAATCCCTCTATATAAATATCTCTCACTTATTTAAA,0.0965,0.0791,
ACAGACGAAGGAGCCGCAAAGAAGTTATTAAGGCATGAATAATCCCTGAATATAAATATCTCTCACTTATTTAAA,0.0864,0.102,
ACAGACGAAGGAGCCGCAAAGAAGTTATTAAGGCATGAATAATCCCTTAATATAAATATCTCTCACTTATTTAAA,0.291,0.411,
ACAGACGAAGGAGCCGCAAAGAAGTTATTAAGGCATGAATAATCCGTCAATATAAATATCTCTCACTTATTTAAA,0.0753,,
ACAGACGAAGGAGCCGCAAAGAAGTTATTAAGGCATGAATAATCCTTCAATATAAATATCTCTCACTTATTTAAA,0.13,0.115,
ACAGACGAAGGAGCCGCAAAGAAGTTATTAAGGCATGAATAATCGCTCAATATAAATATCTCTCACTTATTTAAA,0.0686,,
ACAGACGAAGGAGCCGCAAAGAAGTTATTAAGGCATGAATAATCTCTCAATATAAATATCTCTCACTTATTTAAA,0.125,0.0853,
ACAGACGAAGGAGCCGCAAAGAAGTTATTAAGGCATGAATAATTCCTCAATATAAATATCTCTCACTTATTTAAA,0.133,0.107,
ACAGACGAAGGAGCCGCAAAGAAGTTATTAAGGCATGAATACTCCCTCAATATAAATATCTCTCACTTATTTAAA,0.072,,
ACAGACGAAGGAGCCGCAAAGAAGTTATTAAGGCATGAATATTCCCTCAATATAAATATCTCTCACTTATTTAAA,0.144,0.119,
ACAGACGAAGGAGCCGCAAAGAAGTTATTAAGGCATGAATTATCCCTCAATATAAATATCTCTCACTTATTTAAA,0.132,0.0689,
ACAGACGAAGGAGCCGCAAAGAAGTTATTAAGGCATGACTAATCCCTCAATATAAATATCTCTCACTTATTTAAA,0.102,0.101,
ACAGACGAAGGAGCCGCAAAGAAGTTATTAAGGCATGATTAATCCCTCAATATAAATATCTCTCACTTATTTAAA,0.15,0.125,
ACAGACGAAGGAGCCGCAAAGAAGTTATTAAGGCATTAATAATCCCTCAATATAAATATCTCTCACTTATTTAAA,0.108,0.0847,
ACAGACGAAGGAGCCGCAAAGAAGTTATTAAGGCGTGAATAATCCCTCAATATAAATATCTCTCACTTATTTAAA,0.116,0.097,
ACAGACGAAGGAGCCGCAAAGAAGTTATTAAGGCTTGAATAATCCCTCAATATAAATATCTCTCACTTATTTAAA,0.11,0.115,
ACAGACGAAGGAGCCGCAAAGAAGTTATTAAGGGAAAAATAATCCCTCAATATAAATATCTCTCACTTATTTAAA,0.771,,
ACAGACGAAGGAGCCGCAAAGAAGTTATTAAGGGAACAATAATCCCTCAATATAAATATCTCTCACTTATTTAAA,0.79,,

Sequence,cleaved RNA product abundance [1],cleaved RNA product abundance [2],cleaved RNA product abundance [3]
ACAGACGAAGGAGCCGCAAAGAAGTTATTAAGGGAAGAAAAATCCCTCAATATAAATATCTCTCACTTATTTAAA,0.436,0.684,
ACAGACGAAGGAGCCGCAAAGAAGTTATTAAGGGAAGAACAATCCCTCAATATAAATATCTCTCACTTATTTAAA,0.73,,
ACAGACGAAGGAGCCGCAAAGAAGTTATTAAGGGAAGAATAAACCCTCAATATAAATATCTCTCACTTATTTAAA,0.27,0.301,
ACAGACGAAGGAGCCGCAAAGAAGTTATTAAGGGAAGAATAACCCCTCAATATAAATATCTCTCACTTATTTAAA,0.369,0.283,
ACAGACGAAGGAGCCGCAAAGAAGTTATTAAGGGAAGAATAAGCCCTCAATATAAATATCTCTCACTTATTTAAA,0.823,0.433,
ACAGACGAAGGAGCCGCAAAGAAGTTATTAAGGGAAGAATAATACCTCAATATAAATATCTCTCACTTATTTAAA,0.156,0.101,
ACAGACGAAGGAGCCGCAAAGAAGTTATTAAGGGAAGAATAATCACTCAATATAAATATCTCTCACTTATTTAAA,0.104,0.109,
ACAGACGAAGGAGCCGCAAAGAAGTTATTAAGGGAAGAATAATCCATCAATATAAATATCTCTCACTTATTTAAA,0.105,0.114,
ACAGACGAAGGAGCCGCAAAGAAGTTATTAAGGGAAGAATAATCCCACAATATAAAAATCTCTCACTTATTTAAA,0.118,,
ACAGACGAAGGAGCCGCAAAGAAGTTATTAAGGGAAGAATAATCCCTAAATATAAAAATCTCTCACTTATTTAAA,0.415,,
ACAGACGAAGGAGCCGCAAAGAAGTTATTAAGGGAAGAATAATCCCTAAATATAAATATCTCTCACTTATTTAAA,0.326,,
ACAGACGAAGGAGCCGCAAAGAAGTTATTAAGGGAAGAATAATCCCTCAAAATAAATATCTCTCACTTATTTAAA,0.182,0.17,
ACAGACGAAGGAGCCGCAAAGAAGTTATTAAGGGAAGAATAATCCCTCAACATAAATATCTCTCACTTATTTAAA,0.257,0.133,
ACAGACGAAGGAGCCGCAAAGAAGTTATTAAGGGAAGAATAATCCCTCAATATAAAAATCTCTCACTTATTTAAA,0.563,,
ACAGACGAAGGAGCCGCAAAGAAGTTATTAAGGGAAGAATAATCCCTCAATATAAAGATCTCTCACTTATTTAAA,0.495,,
ACAGACGAAGGAGCCGCAAAGAAGTTATTAAGGGAAGAATAATCCCTCAATATAAATAACTCTCACTTATTTAAA,0.434,,
ACAGACGAAGGAGCCGCAAAGAAGTTATTAAGGGAAGAATAATCCCTCAATATAAATATCTCTCACTTATTTAAA,0.633,0.485,0.691
ACAGACGAAGGAGCCGCAAAGAAGTTATTAAGGGAAGAATAATCCCTCAATATAAATTTCTCTCACTTATTTAAA,,0.471,
ACAGACGAAGGAGCCGCAAAGAAGTTATTAAGGGAAGAATAATCCCTCAATATAATTATCTCTCACTTATTTAAA,0.314,0.292,
